# Measured values taken from article PMC4381339, “Modeling autosomal recessive cutis laxa type 1C in mice reveals distinct functions for Ltbp-4 isoforms” (Disease Models & Mechanisms, 2015).
# T1: recombinant full-length fibulin-4 (mouse, UniProt Q9WVJ9 28-443)
# T1 construct: Fibulin-4, mouse, full length after the signal peptide; also called rfibulin-4; source: HEK 293 EBNA cells, stably expressed, purified from conditioned medium (streptactin-Sepharose)
# T1 sequence (looked up): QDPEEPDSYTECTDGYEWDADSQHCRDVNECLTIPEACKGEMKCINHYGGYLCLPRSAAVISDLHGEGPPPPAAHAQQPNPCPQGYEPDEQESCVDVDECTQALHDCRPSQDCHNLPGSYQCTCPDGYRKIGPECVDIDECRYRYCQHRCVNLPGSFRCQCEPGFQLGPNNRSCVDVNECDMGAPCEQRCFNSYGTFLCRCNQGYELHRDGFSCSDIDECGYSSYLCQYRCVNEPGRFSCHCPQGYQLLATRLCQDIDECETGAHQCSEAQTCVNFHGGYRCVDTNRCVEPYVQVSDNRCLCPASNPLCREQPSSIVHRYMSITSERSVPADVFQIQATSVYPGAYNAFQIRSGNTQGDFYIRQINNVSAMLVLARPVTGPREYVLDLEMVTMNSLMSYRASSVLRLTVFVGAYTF
# T2: recombinant full-length fibulin-5 (mouse, UniProt Q9WVH9 24-448)
# T2 construct: Fibulin-5, mouse, full length after the signal peptide; also called rfibulin-5; source: HEK 293 EBNA cells, stably expressed, purified from conditioned medium (streptactin-Sepharose)
# T2 sequence (looked up): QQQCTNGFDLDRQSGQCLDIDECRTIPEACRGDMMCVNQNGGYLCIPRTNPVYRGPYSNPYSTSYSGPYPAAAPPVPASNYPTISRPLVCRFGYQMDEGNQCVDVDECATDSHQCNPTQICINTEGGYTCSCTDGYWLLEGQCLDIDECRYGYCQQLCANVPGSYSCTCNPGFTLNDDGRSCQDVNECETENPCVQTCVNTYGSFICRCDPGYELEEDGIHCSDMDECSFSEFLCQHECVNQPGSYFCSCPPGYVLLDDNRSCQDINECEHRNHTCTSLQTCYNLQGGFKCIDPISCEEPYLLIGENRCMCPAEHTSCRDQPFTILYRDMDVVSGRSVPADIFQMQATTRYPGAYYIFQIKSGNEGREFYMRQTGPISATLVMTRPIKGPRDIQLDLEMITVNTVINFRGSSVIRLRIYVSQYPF
# B1: Ltbp-4L-2xStrep (N-terminal fragment of mouse Ltbp-4L) (domain or fragment, UniProt Q8K4G1-1 25-277, looked up)
# chain: SGSSPSPSPSPIEKAVVPSHQAGVAACHCCLDQTPKSSRCTRASCRVRNCPPAKCTGLEGCLTPTPSVPSPSRSPVEKSQVSLNWQPLTLQEARALLRQRRPRGPWARALLKRRPPHRAPAGQARVLCPLICHNGGVCVKPDRCLCPPDFAGKFCQLHSSGARPPAPAMPGLTRSVYTMPLANHRDDEHGVASMVSVHVEHPQEASVVVHQVERVSGPWEEANPEALARAEAAARAEAAAPYTVLAQSAPRED
# notes: the first 253 amino acids after the signal peptide (Ser25-Asp277); numbers count on: the long isoform Ltbp-4L; Cloned into a modified pCEP-Pu vector with a 3' 2xStrepII tag through NheI and XhoI; also called N-terminal Ltbp-4L; Ltbp-4L N-terminal fragment; source: HEK 293 EBNA cells, stably expressed, purified from conditioned medium (streptactin-Sepharose); not shown: 2xStrepII, C-terminal, kept
# B2: Ltbp-4S-2xStrep (N-terminal fragment of mouse Ltbp-4S) (domain or fragment, UniProt Q8K4G1-2 27-211, looked up)
# chain: RPRERLRVRFTPAVCGLRCIHGPTGSRCTPTCAPRNATSVDSGAPGGAAPGGPGFRAFLCPLICHNGGVCVKPDRCLCPPDFAGKFCQLHSSGARPPAPAMPGLTRSVYTMPLANHRDDEHGVASMVSVHVEHPQEASVVVHQVERVSGPWEEANPEALARAEAAARAEAAAPYTVLAQSAPRED
# modifications: N-linked glycosylation (shift after PNGase F), residue not given
# notes: the first 185 amino acids after the signal peptide (Arg27-Asp211); numbers count on: the short isoform Ltbp-4S; Cloned into a modified pCEP-Pu vector with a 3' 2xStrepII tag through NheI and XhoI; also called N-terminal Ltbp-4S; Ltbp-4S N-terminal fragment; source: HEK 293 EBNA cells, stably expressed, purified from conditioned medium (streptactin-Sepharose); not shown: 2xStrepII, C-terminal, kept
# Key:
# [1] = molecular target: rfibulin-4 and rfibulin-5 (mouse); experiment: SPR; Ltbp-4L-2xStrep and Ltbp-4S-2xStrep after PNGase F digest under non-denaturing conditions, flown over rfibulin-4 and rfibulin-5 immobilized on a Biacore chip; response compared before and after deglycosylation; n=2
# [2] = molecular target: T1, recombinant full-length fibulin-4; experiment: SPR; BIAcore2000; 570 RUs of rfibulin-4 or 390 RUs of rfibulin-5 amine-coupled to carboxymethyldextran hydrogel 500M chips; Ltbp-4L-2xStrep (0-320 nM) or Ltbp-4S-2xStrep (0-80 nM) flown over as analyte; 1:1 Langmuir fits, kobs plotted against concentration; apparent Kd = koff/kon; conditions: both partners purified
# [3] = molecular target: T2, recombinant full-length fibulin-5; experiment: as above; conditions: both partners purified
Molecule,percent increase of the SPR signal after deglycosylation (against Ltbp-4S-2xStrep before deglycosylation) [1] [%],Kd [2] [nM],koff [2] [s⁻¹],kon [2] [M⁻¹ s⁻¹],Kd [3] [nM],koff [3] [s⁻¹],kon [3] [M⁻¹ s⁻¹]
Ltbp-4S-2xStrep after deglycosylation with PNGase F under non-denaturing conditions (domain or fragment),15 to 20,–,–,–,–,–,–
B1,–,3.1,0.0041,1.3e+06,2.4,0.0053,2.2e+06
B2,–,15.4,0.0108,700000,15.8,0.0158,1e+06
